The values below come from article PMC2878131 (Science (New York, N.Y.), 2010).

The target in the experiment is T1, preMADH α subunit (Paracoccus denitrificans, UniProt P29894 29-417).
T1 sequence (looked up): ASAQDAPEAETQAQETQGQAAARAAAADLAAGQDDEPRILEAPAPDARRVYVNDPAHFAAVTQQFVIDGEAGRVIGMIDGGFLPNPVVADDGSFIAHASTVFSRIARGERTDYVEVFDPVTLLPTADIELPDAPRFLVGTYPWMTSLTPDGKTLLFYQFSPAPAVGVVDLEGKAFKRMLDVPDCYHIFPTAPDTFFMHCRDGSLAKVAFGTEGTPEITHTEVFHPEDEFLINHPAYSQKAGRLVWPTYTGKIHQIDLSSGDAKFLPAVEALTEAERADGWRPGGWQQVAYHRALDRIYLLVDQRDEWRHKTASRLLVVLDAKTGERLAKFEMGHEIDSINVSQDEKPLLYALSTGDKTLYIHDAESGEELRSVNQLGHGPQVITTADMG
Briefly: crystal structure.

B1: preMADH β subunit (natural protein, Paracoccus denitrificans, UniProt P22619 58-188, looked up)
chain: ADAPAGTDPRAKWVPQDNDIQACDYWRHCSIDGNICDCSGGSLTNCPPGTKLATASWVASCYNPTDGQSYLIAYRDCCGYNVSGRCPCLNTEGELPVYRPEFANDIIWCFGAEDDAMTYHCTISPIVGKAS
modifications: βTrp57 monohydroxylated at the C7 carbon of the indole ring; no cross-link between βTrp57 and βTrp108
As for B1, the binding result is recorded as “binds”.
